Source: the supplement of paper PMC10065799, “High-throughput profiling of sequence recognition by tyrosine kinases and SH2 domains using bacterial peptide display” (eLife, 2023)

tested on: AncSZ; experiment: phosphorylation enrichment, bacterial display (enrichment ratio); higher = better substrate or ligand; peptides without Tyr show the background
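Also: 11-residue human phosphosite peptides and single-mutation variants displayed on the E. coli surface, counted by deep sequencing, each peptide's frequency after selection divided by its frequency in the unselected input library; frequency after pTyr selection over input frequency; kinase dosed for 20-30% of maximal phosphorylation in three min.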

Row | Sequence | phosphorylation enrichment
1 | EKLQKYFRQNP [EHHADH_Y682_YF] | 0.802
2 | DLVHPYVHKIL [SF3B1_Y570_R568H] | 0.717
3 | ASKEPYYVRCI [MYO1D_Y585] | 1.35
4 | MGGSVYFSYPD [HIKESHI_Y55] | 1.02
5 | FSCLPCGRLAY [SLC52A2_Y305_Y305C] | 0.832
6 | AFLEDYFTSTK [SRC_Y522_E527K] | 1.1
7 | ERPIRYLNHQL [CEP152_Y268_Q265P] | 0.504
8 | QKKEEYKMALY [F8_Y1990_R1985Q] | 1.72
9 | SGVSFYINLCQ [IGF2R_Y2025_N2020S_YF] | 1.5
10 | NTDETYSIDNE [TUBB2B_Y200_C201S] | 1.27
11 | LKFAIYFEVRE [LAMA2_Y1258_A1261V_YF] | 1.65
12 | RPSRQYATLDV [SCAMP3_Y35] | 0.373
13 | TEAGDYKLCFD [TMED1_Y103] | 1.38
14 | GGPTFYIDTNA [ACTL6A_Y69_YF] | 1.24
15 | PRPAGYPSMVS [CACNA1C_Y1832_T1835M] | 0.678
16 | RGLQVYHKRNA [LRP2_Y2010_R2012K] | 0.545
17 | TLAHKYHGGGG [HBB_Y146_A141T] | 0.652

Row | Sequence | phosphorylation enrichment
18 | NVGGKYSYLKV [GRM3_Y478] | 0.625
19 | PELINYHQHNS [BTK_Y361] | 0.981
20 | SPFMLYQFLKQ [RPAP3_Y567_D564Y_YF] | 1.15
21 | RFWPRYVKVGS [NOG_Y172] | 1.36
22 | KAIMTYVPSFF [ACTN4_Y260_S262P_YF] | 0.72
23 | EASEQHLTKAS [NRCAM_Y739_Y739H] | 0.887
24 | EACRSYSHVVL [CHST6_Y168] | 0.808
25 | SDFSSYARTSI [TERT_Y949_YF] | 0.877
26 | RLYARYFQGDL [PDK3_Y337] | 1.24
27 | FLAVEYHKPHI [IDS_Y225_G224E] | 0.779
28 | ETCLAYMEKRI [TEKT1_Y118_R119M] | 1.2
29 | DFAIVYGTIIL [GPR179_Y460_G455D] | 1.52
30 | AKGMKYVASKK [MET_Y1194_L1195V] | 0.451
31 | LWPIWYRCRRP [MRGPRX1_Y130_H133R] | 0.618
32 | KKMKCYHVGKV [HARS2_Y151_R150C] | 0.579
33 | PADCRYYAFPQ [GAMT_Y222] | 3.91

molecular target: EPHB1 (UniProt P54762); experiment: as above
Sequence (P54762 whole entry, looked up): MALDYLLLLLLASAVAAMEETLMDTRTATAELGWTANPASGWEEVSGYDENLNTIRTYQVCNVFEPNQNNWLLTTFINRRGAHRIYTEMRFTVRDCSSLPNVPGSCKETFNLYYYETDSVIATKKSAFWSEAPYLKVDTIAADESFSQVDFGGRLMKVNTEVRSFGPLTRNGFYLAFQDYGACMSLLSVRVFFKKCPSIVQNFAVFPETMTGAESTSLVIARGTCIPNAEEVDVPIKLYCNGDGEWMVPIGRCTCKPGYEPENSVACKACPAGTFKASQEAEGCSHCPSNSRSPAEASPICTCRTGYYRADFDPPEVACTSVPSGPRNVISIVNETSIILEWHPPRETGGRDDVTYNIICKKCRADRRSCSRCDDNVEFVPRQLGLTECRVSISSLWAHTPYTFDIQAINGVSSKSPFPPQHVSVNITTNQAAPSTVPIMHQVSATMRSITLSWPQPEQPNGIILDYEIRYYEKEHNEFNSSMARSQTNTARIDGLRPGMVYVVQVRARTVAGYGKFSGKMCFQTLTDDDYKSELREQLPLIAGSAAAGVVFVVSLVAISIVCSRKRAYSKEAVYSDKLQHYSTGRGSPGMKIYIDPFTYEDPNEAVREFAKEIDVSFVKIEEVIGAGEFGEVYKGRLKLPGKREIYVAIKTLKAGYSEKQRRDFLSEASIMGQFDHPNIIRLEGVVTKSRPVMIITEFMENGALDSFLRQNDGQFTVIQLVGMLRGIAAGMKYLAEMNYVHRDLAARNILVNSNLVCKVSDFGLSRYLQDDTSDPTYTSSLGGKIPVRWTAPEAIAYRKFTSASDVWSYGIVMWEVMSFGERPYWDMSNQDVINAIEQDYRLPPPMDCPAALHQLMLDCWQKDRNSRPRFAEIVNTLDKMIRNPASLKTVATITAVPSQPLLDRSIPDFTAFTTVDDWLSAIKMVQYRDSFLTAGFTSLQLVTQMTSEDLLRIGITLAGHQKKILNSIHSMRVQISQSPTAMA

Row | Sequence | phosphorylation enrichment
34 | EKLQKYFRQNP [EHHADH_Y682_YF] | 0.375
35 | DLVHPYVHKIL [SF3B1_Y570_R568H] | 0.468
36 | ASKEPYYVRCI [MYO1D_Y585] | 0.877
37 | MGGSVYFSYPD [HIKESHI_Y55] | 0.728
38 | FSCLPCGRLAY [SLC52A2_Y305_Y305C] | 0.431
39 | AFLEDYFTSTK [SRC_Y522_E527K] | 0.378
40 | ERPIRYLNHQL [CEP152_Y268_Q265P] | 0.421
41 | QKKEEYKMALY [F8_Y1990_R1985Q] | 0.984
42 | SGVSFYINLCQ [IGF2R_Y2025_N2020S_YF] | 0.806
43 | NTDETYSIDNE [TUBB2B_Y200_C201S] | 0.622
44 | LKFAIYFEVRE [LAMA2_Y1258_A1261V_YF] | 0.652
45 | RPSRQYATLDV [SCAMP3_Y35] | 0.331
46 | TEAGDYKLCFD [TMED1_Y103] | 0.773
47 | GGPTFYIDTNA [ACTL6A_Y69_YF] | 0.707
48 | PRPAGYPSMVS [CACNA1C_Y1832_T1835M] | 0.393
49 | RGLQVYHKRNA [LRP2_Y2010_R2012K] | 0.45
50 | TLAHKYHGGGG [HBB_Y146_A141T] | 0.46

Row | Sequence | phosphorylation enrichment
51 | NVGGKYSYLKV [GRM3_Y478] | 0.415
52 | PELINYHQHNS [BTK_Y361] | 0.666
53 | SPFMLYQFLKQ [RPAP3_Y567_D564Y_YF] | 4.55
54 | RFWPRYVKVGS [NOG_Y172] | 0.532
55 | KAIMTYVPSFF [ACTN4_Y260_S262P_YF] | 0.61
56 | EASEQHLTKAS [NRCAM_Y739_Y739H] | 0.38
57 | EACRSYSHVVL [CHST6_Y168] | 0.454
58 | SDFSSYARTSI [TERT_Y949_YF] | 0.546
59 | RLYARYFQGDL [PDK3_Y337] | 0.705
60 | FLAVEYHKPHI [IDS_Y225_G224E] | 0.417
61 | ETCLAYMEKRI [TEKT1_Y118_R119M] | 0.591
62 | DFAIVYGTIIL [GPR179_Y460_G455D] | 0.732
63 | AKGMKYVASKK [MET_Y1194_L1195V] | 0.301
64 | LWPIWYRCRRP [MRGPRX1_Y130_H133R] | 0.58
65 | KKMKCYHVGKV [HARS2_Y151_R150C] | 0.444
66 | PADCRYYAFPQ [GAMT_Y222] | 12.1
